Two molecules from patent US20250388663A1 (INSTITUT NATIONAL DE LA SANT ET DE LA RECHERCHE M DICALE, published 2025) can be followed below.

Assay [1] deals with T1, mouse serum albumin (mouse, UniProt P07724 25-608).
T1 construct: also called MSA; murine serum albumin
The assay is described as follows: SPR (openSPR), control channel blocked with the non-relevant sdAb and ethanolamine, albumin perfused. As to conditions: scale: % of binding to OptiAlb-12-coated channels.

For assay [2], the target named is human serum albumin (human) (UniProt P02768). The assay is described as above. As to conditions: scale: % of binding to OptiAlb-12-coated channels.
The target in assay [3] is T1, mouse serum albumin. The assay can be described thus: ELISA, MSA coated at 2 ug/ml, nanobody titrated, anti-cMyc-HRP detection.
Experimental: After washing wells with PBS/0.1% Tween-20, wells were blocked by incubating with PBS/1% bovine serum albumin (BSA) for 1 h at 37° C. […] After three washes with PBS/0.1% Tween-20, bound proteins were probed using polyclonal peroxidase-labelled anti-cMyc antibodies (1:5,000 dilution), and detected via hydrolysis of 3,3′,5,5′-tetramethylbenzidine.

T1 sequence (P07724 25-608 limits assumed): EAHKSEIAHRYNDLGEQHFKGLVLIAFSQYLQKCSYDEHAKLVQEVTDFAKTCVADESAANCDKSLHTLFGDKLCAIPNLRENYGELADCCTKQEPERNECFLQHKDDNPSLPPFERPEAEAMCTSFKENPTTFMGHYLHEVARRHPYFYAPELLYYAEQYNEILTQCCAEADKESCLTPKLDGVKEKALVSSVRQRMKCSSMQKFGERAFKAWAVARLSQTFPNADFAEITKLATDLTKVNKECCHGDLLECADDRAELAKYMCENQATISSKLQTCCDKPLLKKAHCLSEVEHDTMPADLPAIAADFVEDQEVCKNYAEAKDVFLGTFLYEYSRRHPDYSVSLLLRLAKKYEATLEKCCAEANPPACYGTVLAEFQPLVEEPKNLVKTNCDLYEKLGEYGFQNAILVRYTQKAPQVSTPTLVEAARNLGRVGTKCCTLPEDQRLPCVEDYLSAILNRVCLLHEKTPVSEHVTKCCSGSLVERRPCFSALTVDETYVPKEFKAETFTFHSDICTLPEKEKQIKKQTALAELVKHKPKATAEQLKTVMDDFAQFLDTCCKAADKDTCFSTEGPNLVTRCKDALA

Take “non-relevant single-domain antibody (VHH)”: the binding to the control channel as percent of binding to OptiAlb-12-coated channels (with mouse serum albumin [1]; in assay [2]) was under 3 in each case.

B1: OptiAlb-11 (VHH)
VHH: EVQLVESGGGLVQPGNSLRLSCAASGFTFSSFGMSWVRQAPGKGPEWVSSISGSGHDTLYADSVKGRFTISRDNAKTTLYLQMNSLRPEDTAVYYCTIGGSLTRSSQGTLVTVSS
notes: not shown: C-terminal histidine- and cMyc-tag from the pHEN6 plasmid
In the case of B1, the binding result with mouse serum albumin [3] is “binds”.
